Results published in the supplement of paper PMC9876800.

Tested on: peptide library, one residue held at a place counted from the S/T acceptor
Test: relative phosphorylation of the sub-library (ratio to the mean residue at this position); higher = residue favoured
Method in brief: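 Purified recombinant kinases (human or orthologue constructs) were incubated in 384-well plates with biotinylated degenerate peptide sub-libraries, each fixing one residue at one position around a central Ser/Thr. Peptides were at 50 μM, with 50 μM ATP spiked with γ-32P-ATP, for 90 min under kinase-specific conditions. Spots on streptavidin membranes were phosphorimaged and quantified by densitometry. Relative sub-library phosphorylation is a ratio to the mean residue at that position.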

MAPK13, construct: Full length, human, sequence (O15264 whole entry, looked up): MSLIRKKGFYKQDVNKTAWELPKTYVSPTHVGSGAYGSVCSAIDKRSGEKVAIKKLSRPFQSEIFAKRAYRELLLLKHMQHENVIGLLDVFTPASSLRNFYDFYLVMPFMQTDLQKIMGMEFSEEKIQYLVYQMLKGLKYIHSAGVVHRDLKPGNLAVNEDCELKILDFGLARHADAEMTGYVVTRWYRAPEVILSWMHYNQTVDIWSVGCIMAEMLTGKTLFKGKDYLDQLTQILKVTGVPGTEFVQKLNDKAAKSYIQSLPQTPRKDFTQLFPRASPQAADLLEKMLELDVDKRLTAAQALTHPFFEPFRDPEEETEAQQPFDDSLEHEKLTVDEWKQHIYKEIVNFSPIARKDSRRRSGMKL
MAP3K15, construct: aa631-922, human, sequence (Q6ZN16 631-922, looked up): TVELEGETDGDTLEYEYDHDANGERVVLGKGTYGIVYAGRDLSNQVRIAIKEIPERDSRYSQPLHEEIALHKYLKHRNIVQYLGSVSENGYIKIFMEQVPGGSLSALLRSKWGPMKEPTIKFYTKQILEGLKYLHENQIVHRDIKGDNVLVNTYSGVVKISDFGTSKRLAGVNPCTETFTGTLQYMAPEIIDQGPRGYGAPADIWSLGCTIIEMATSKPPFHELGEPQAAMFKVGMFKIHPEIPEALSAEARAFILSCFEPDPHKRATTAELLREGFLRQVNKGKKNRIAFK
MAP3K1, construct: aa1174-end, human, sequence (Q13233 1174-1512, looked up): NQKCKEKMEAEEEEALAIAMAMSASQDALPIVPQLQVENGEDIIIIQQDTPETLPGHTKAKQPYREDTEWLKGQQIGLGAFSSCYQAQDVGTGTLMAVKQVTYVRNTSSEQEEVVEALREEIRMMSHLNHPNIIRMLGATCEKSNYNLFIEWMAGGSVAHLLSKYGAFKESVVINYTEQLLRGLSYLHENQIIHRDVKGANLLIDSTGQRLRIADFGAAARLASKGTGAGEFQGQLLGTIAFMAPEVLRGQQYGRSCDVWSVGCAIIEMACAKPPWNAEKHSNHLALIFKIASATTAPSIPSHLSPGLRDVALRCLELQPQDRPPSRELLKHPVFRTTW
MAP3K14, construct: aa327-673, human, sequence (Q99558 327-673, looked up): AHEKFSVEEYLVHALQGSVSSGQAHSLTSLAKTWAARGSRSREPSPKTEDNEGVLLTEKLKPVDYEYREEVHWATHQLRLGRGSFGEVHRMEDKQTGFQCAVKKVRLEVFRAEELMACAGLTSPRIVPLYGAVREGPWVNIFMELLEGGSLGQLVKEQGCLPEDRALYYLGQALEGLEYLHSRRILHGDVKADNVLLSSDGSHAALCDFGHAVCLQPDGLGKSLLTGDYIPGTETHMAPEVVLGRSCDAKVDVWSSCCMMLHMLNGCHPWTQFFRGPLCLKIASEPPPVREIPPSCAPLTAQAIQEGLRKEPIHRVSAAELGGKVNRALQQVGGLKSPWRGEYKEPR

MAP3K1, construct: aa1174-end, human (from UniProt Q13233)
relative phosphorylation
Details | at +1 | at +2 | at +3 | at +4 | at -1 | at -2 | at -3 | at -4 | at -5
A fixed | 0.537 | 1.1 | 0.749 | 0.741 | 0.7 | 1.08 | 1.07 | 1.01 | 1.04
D fixed | 0.324 | 0.73 | 0.46 | 0.814 | 1.35 | 1.11 | 1.04 | 1.21 | 1.21
E fixed | 0.309 | 0.439 | 0.395 | 0.711 | 0.98 | 0.858 | 1.14 | 1.08 | 1.23
F fixed | 1.12 | 0.619 | 1.17 | 0.878 | 0.741 | 1.01 | 0.862 | 1.06 | 0.837
G fixed | 0.785 | 0.9 | 0.977 | 1.14 | 1.22 | 1.31 | 1.44 | 1.33 | 1.67
H fixed | 0.853 | 1.27 | 1.03 | 1.23 | 1.89 | 1.33 | 1.19 | 1.17 | 1.19
I fixed | 2.35 | 0.826 | 1.35 | 1.13 | 0.522 | 0.69 | 0.849 | 0.721 | 0.812
K fixed | 0.593 | 1.57 | 0.996 | 1.04 | 0.791 | 0.644 | 0.659 | 0.899 | 0.897
L fixed | 1.31 | 0.49 | 1.35 | 0.914 | 0.711 | 1.03 | 0.772 | 0.715 | 0.565
M fixed | 1.88 | 1.03 | 1.46 | 1.1 | 1.23 | 1.29 | 1.16 | 0.793 | 0.832
N fixed | 0.688 | 1.38 | 0.727 | 1.02 | 1.57 | 1.26 | 0.989 | 0.996 | 1.09
P fixed | 0.343 | 0.583 | 0.773 | 0.923 | 0.893 | 0.839 | 1.13 | 0.952 | 1.07
Q fixed | 0.963 | 0.825 | 0.725 | 0.823 | 1.09 | 1.03 | 0.78 | 0.838 | 0.761
R fixed | 0.837 | 2.5 | 1.24 | 1.6 | 1.38 | 0.832 | 0.857 | 0.954 | 1.17
V fixed | 1.77 | 0.777 | 0.812 | 0.66 | 0.479 | 0.581 | 0.639 | 0.735 | 0.65
W fixed | 1.19 | 0.798 | 1.41 | 1.19 | 0.599 | 0.943 | 1.27 | 1.54 | 0.897
Y fixed | 1.15 | 1.17 | 1.36 | 1.08 | 0.855 | 1.16 | 1.15 | 0.982 | 1.09
pThr fixed | 0.504 | 0.403 | 0.516 | 0.644 | 0.679 | 0.909 | 1.05 | 0.952 | 1.05
pTyr fixed | 0.495 | 0.368 | 0.623 | 0.696 | 0.796 | 0.796 | 1.22 | 0.824 | 1.36

MAP3K14, construct: aa327-673, human (from UniProt Q99558)
relative phosphorylation
Details | at +1 | at +2 | at +3 | at +4 | at -1 | at -2 | at -3 | at -4 | at -5
A fixed | 0.858 | 0.835 | 0.87 | 0.88 | 0.975 | 1.06 | 0.893 | 1 | 0.972
D fixed | 0.726 | 0.707 | 0.858 | 0.865 | 0.8 | 0.709 | 0.687 | 0.783 | 0.764
E fixed | 0.775 | 0.682 | 0.769 | 0.786 | 0.755 | 0.73 | 0.705 | 0.877 | 0.735
F fixed | 1.21 | 0.85 | 0.978 | 0.96 | 0.787 | 0.923 | 0.751 | 0.89 | 1.04
G fixed | 0.867 | 0.83 | 0.956 | 1.04 | 1.09 | 1.01 | 0.925 | 1.02 | 0.917
H fixed | 0.973 | 1.15 | 1.11 | 1.04 | 1.16 | 1.08 | 1.08 | 1.06 | 1.05
I fixed | 1 | 0.886 | 0.795 | 0.924 | 0.66 | 0.713 | 0.64 | 0.804 | 0.879
K fixed | 1.08 | 1.68 | 1.36 | 1.36 | 1.49 | 1.19 | 1.92 | 1.53 | 1.38
L fixed | 1.09 | 0.908 | 0.971 | 1.02 | 0.874 | 0.78 | 0.731 | 0.896 | 1.23
M fixed | 1.26 | 0.844 | 0.875 | 0.962 | 0.966 | 1.02 | 0.753 | 0.977 | 1.04
N fixed | 0.909 | 0.978 | 1.18 | 1.09 | 1.19 | 0.954 | 0.904 | 1.02 | 0.911
P fixed | 0.69 | 0.817 | 0.935 | 1.25 | 1.02 | 0.763 | 0.843 | 0.924 | 1.05
Q fixed | 1.09 | 0.918 | 0.979 | 1.06 | 1.04 | 1.18 | 0.97 | 1.03 | 0.921
R fixed | 1.2 | 2.11 | 1.49 | 1.23 | 1.63 | 1.94 | 2.81 | 1.49 | 1.43
V fixed | 0.988 | 0.892 | 0.81 | 0.866 | 0.687 | 0.76 | 0.652 | 0.843 | 0.808
W fixed | 1.21 | 0.909 | 1.09 | 0.827 | 0.814 | 1.12 | 0.939 | 0.938 | 0.945
Y fixed | 1.06 | 0.998 | 0.983 | 0.841 | 1.07 | 1.07 | 0.793 | 0.931 | 0.921
pThr fixed | 0.918 | 0.837 | 0.843 | 0.923 | 0.678 | 0.769 | 0.827 | 0.899 | 0.877
pTyr fixed | 0.869 | 0.849 | 0.889 | 0.774 | 0.829 | 0.824 | 1.01 | 0.941 | 0.985

MAP3K15, construct: aa631-922, human (from UniProt Q6ZN16)
relative phosphorylation
Details | at +1 | at +2 | at +3 | at +4 | at -1 | at -2 | at -3 | at -4 | at -5
A fixed | 0.514 | 0.74 | 1.02 | 0.926 | 1.01 | 1.79 | 1.14 | 1.02 | 0.99
D fixed | 0.2 | 0.473 | 0.377 | 0.494 | 0.459 | 0.498 | 0.88 | 0.771 | 0.79
E fixed | 0.257 | 0.337 | 0.401 | 0.534 | 0.471 | 0.513 | 0.73 | 0.739 | 0.743
F fixed | 1.94 | 1.79 | 0.942 | 0.898 | 0.745 | 0.735 | 0.771 | 0.855 | 1.1
G fixed | 0.39 | 0.733 | 1.07 | 1.07 | 2.13 | 1.26 | 1.04 | 1.29 | 1.24
H fixed | 1.08 | 1.01 | 1.04 | 1.04 | 0.94 | 0.852 | 1.07 | 0.963 | 1.17
I fixed | 1.94 | 0.567 | 1.09 | 1.13 | 0.415 | 0.859 | 0.687 | 0.668 | 0.761
K fixed | 0.39 | 1.48 | 1.14 | 1.82 | 1.43 | 0.864 | 1.18 | 1.06 | 1.05
L fixed | 1.41 | 0.76 | 1.01 | 0.885 | 0.828 | 0.983 | 0.799 | 0.788 | 0.759
M fixed | 1.18 | 0.952 | 1.02 | 0.926 | 0.963 | 1.07 | 0.837 | 0.896 | 0.929
N fixed | 0.439 | 0.782 | 0.971 | 0.91 | 1.28 | 1.26 | 1.18 | 1.19 | 0.988
P fixed | 0.352 | 0.676 | 1.08 | 0.971 | 1.15 | 1.63 | 1.6 | 1.37 | 1.2
Q fixed | 0.604 | 0.79 | 0.917 | 1.1 | 1.07 | 1.13 | 1.26 | 1.1 | 1.08
R fixed | 0.481 | 1.7 | 1.39 | 1.2 | 1.73 | 0.885 | 1.21 | 1.15 | 1.03
V fixed | 1.84 | 0.617 | 1.12 | 0.866 | 0.524 | 1.13 | 0.776 | 0.888 | 1.24
W fixed | 1.83 | 1.02 | 1.19 | 1.15 | 0.745 | 0.693 | 0.917 | 1.08 | 1.02
Y fixed | 2.16 | 2.58 | 1.24 | 1.07 | 1.12 | 0.848 | 0.925 | 1.18 | 0.915
pThr fixed | 0.588 | 0.497 | 0.73 | 0.394 | 0.639 | 1.06 | 1.04 | 0.928 | 1.09
pTyr fixed | 0.529 | 0.403 | 0.951 | 0.582 | 0.832 | 0.888 | 1.02 | 0.936 | 1.2

MAPK13, construct: Full length, human (from UniProt O15264)
relative phosphorylation
Details | at +1 | at +2 | at +3 | at +4 | at -1 | at -2 | at -3 | at -4 | at -5
A fixed | 0.304 | 0.921 | 1.42 | 1.32 | 1.31 | 1.25 | 1.26 | 1.2 | 1.3
D fixed | 0.162 | 0.572 | 1 | 1.09 | 1.11 | 0.486 | 1.09 | 1.46 | 1.26
E fixed | 0.123 | 0.497 | 1.07 | 0.846 | 0.937 | 0.434 | 1.21 | 1.39 | 1.34
F fixed | 0.148 | 0.663 | 0.413 | 1.06 | 0.768 | 0.457 | 1.04 | 0.933 | 0.923
G fixed | 0.975 | 1.31 | 1.13 | 1.39 | 0.948 | 0.896 | 1.64 | 1.16 | 1.33
H fixed | 0.143 | 0.694 | 0.936 | 0.884 | 0.927 | 0.405 | 0.773 | 0.879 | 1.05
I fixed | 0.172 | 1.27 | 0.948 | 1.02 | 0.529 | 1.52 | 0.912 | 1.02 | 0.923
K fixed | 0.148 | 0.751 | 0.57 | 0.665 | 0.681 | 0.25 | 0.522 | 0.662 | 0.855
L fixed | 0.208 | 1.27 | 1.08 | 0.988 | 1.24 | 2.47 | 0.884 | 1.05 | 0.974
M fixed | 0.182 | 1.04 | 0.659 | 1.28 | 1.77 | 1.49 | 1.14 | 1.22 | 1.16
N fixed | 0.16 | 0.438 | 0.64 | 0.849 | 0.782 | 0.512 | 0.815 | 0.983 | 1.1
P fixed | 12.9 | 1.05 | 2.58 | 0.942 | 2.31 | 3.75 | 1.08 | 0.999 | 0.962
Q fixed | 0.613 | 0.805 | 0.853 | 0.754 | 1.15 | 0.554 | 0.999 | 1.04 | 0.915
R fixed | 0.171 | 1.4 | 0.715 | 0.559 | 0.698 | 0.353 | 0.542 | 0.653 | 0.792
V fixed | 0.353 | 2.28 | 1.18 | 1.41 | 0.635 | 1.53 | 1.24 | 0.939 | 0.652
W fixed | 0.126 | 0.88 | 1.01 | 0.868 | 0.486 | 0.279 | 0.837 | 0.745 | 0.721
Y fixed | 0.14 | 1.16 | 0.791 | 1.07 | 0.711 | 0.36 | 1.02 | 0.665 | 0.735
pThr fixed | 0.158 | 1.67 | 0.939 | 0.853 | 0.309 | 0.376 | 1.14 | 1.49 | 1.7
pTyr fixed | 0.126 | 0.994 | 0.837 | 0.652 | 0.729 | 0.339 | 1.07 | 1.38 | 1.19
